The record followed here is the supplement of paper PMC10724198.

The test system of the data set is Saccharomyces cerevisiae. The data set is described as follows: protein stability index of tFT-peptide fusion (C-terminal peptide) (PSI (0-1 scale)); higher = more stable (slower turnover). As to conditions: temperature: 30 C. The procedure: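 MPS profiling in S. cerevisiae of the yeast C-terminome library: the last 12 aa of each annotated ORF are fused to the C-terminus of a sfGFP-mCherry timer, after a GGGS linker. Cells are FACS-sorted into 8 mCherry/sfGFP bins and deep-sequenced. PSI runs from 0 (unstable) to 1 (stable); wild type and das1Δ backgrounds, two technical replicates each.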

The mark [1] stands for this setting: genetic background: das1 deletion.

± gives the standard deviation of the averaged measurements.

For the sequence FTDDSGTIKQEE [CMR1 C-terminal 12 aa], the protein stability index by setting is: under setting [1], 0.713 ± 0.0073; (genetic background: wild type) 0.703 ± 0.026.

Turning to FTNEIINKLSTM [IDH1 C-terminal 12 aa], the protein stability index was determined as 0.692 ± 0.052 under setting [1] and 0.5514 ± 0.0019 (genetic background: wild type).

As for FTVKANSQSESA [GRX7 C-terminal 12 aa], the protein stability index runs as follows: under setting [1], 0.6758 ± 0.0034; (genetic background: wild type) 0.694 ± 0.027.

Sequence “FVFVRYFNYADS [YCR081C-A C-terminal 12 aa]” returned a protein stability index under setting [1] of 0.631 ± 0.023 and a protein stability index (genetic background: wild type) of 0.622 ± 0.011.

On to FVLKCIKDMYAK [IRC25 C-terminal 12 aa], for which the protein stability index by setting is: under setting [1], 0.682 ± 0.018; (genetic background: wild type) 0.681 ± 0.017.

As for FVSSDPGLTQWL [HNT2 C-terminal 12 aa], the protein stability index reads like this: under setting [1], 0.745 ± 0.014; (genetic background: wild type) 0.713 ± 0.0078.

FVVKEGLLKNRK [GTF1 C-terminal 12 aa]: the protein stability index reads like this: under setting [1], 0.701 ± 0.027; (genetic background: wild type) 0.7 ± 0.024.

Take FYDLWDAYEDDS [GDB1 C-terminal 12 aa]: the protein stability index worked out at 0.751 ± 0.028 under setting [1] and 0.704 ± 0.013 (genetic background: wild type).

On to FYPVTSEFSKNK [HOB2 C-terminal 12 aa], for which the protein stability index reads like this: under setting [1], 0.7 ± 0.039; (genetic background: wild type) 0.767 ± 0.013.

As to GAGAFAVGALLL [NCW2 C-terminal 12 aa], the protein stability index was 0.7034 ± 0.0019 under setting [1] and 0.687 ± 0.026 (genetic background: wild type).

On to GALALGLISYLL [FIT2 C-terminal 12 aa], for which the protein stability index by setting is: under setting [1], 0.695 ± 0.007; (genetic background: wild type) 0.686 ± 0.014.

Take GALPTTDPLFQW [YJL043W C-terminal 12 aa]: the protein stability index came out at 0.7371 ± 0.0031 under setting [1] and 0.704 ± 0.0071 (genetic background: wild type).

GAPSLYSYLLCL [IRC2 C-terminal 12 aa]: the protein stability index under setting [1] was determined as 0.684 ± 0.0082 and the protein stability index (genetic background: wild type) turned out to be 0.487 ± 0.019.

As to GAVVAGAAALLL [TIP1 C-terminal 12 aa], the protein stability index is, setting by setting: under setting [1], 0.729 ± 0.024; (genetic background: wild type) 0.709 ± 0.032.

Regarding GCGEDLKKDILS [DOP1 C-terminal 12 aa], the protein stability index runs as follows: under setting [1], 0.71 ± 0.017; (genetic background: wild type) 0.668 ± 0.024.

As for GCVLGKLGYLKM [RAD33 C-terminal 12 aa], the protein stability index under setting [1] was 0.719 ± 0.024 and the protein stability index (genetic background: wild type) worked out at 0.619 ± 0.07.

For the sequence GDDESRPRKMRR [BMS1 C-terminal 12 aa], the protein stability index was found to be 0.678 ± 0.0091 under setting [1] and 0.674 ± 0.012 (genetic background: wild type).

Take GDDPYAEYFQDF [TPK2 C-terminal 12 aa]: the protein stability index reads like this: under setting [1], 0.735 ± 0.01; (genetic background: wild type) 0.717 ± 0.039.

On to GEAVPEPVEEES [SEC27 C-terminal 12 aa], for which the protein stability index runs as follows: under setting [1], 0.698 ± 0.013; (genetic background: wild type) 0.691 ± 0.043.

For the sequence “GFRPECLYYYIK [YPR016W-A C-terminal 12 aa]”, the protein stability index runs as follows: under setting [1], 0.5801 ± 0.0036; (genetic background: wild type) 0.564 ± 0.024.

Regarding GGPPKVNKDIIS [HAT2 C-terminal 12 aa], the protein stability index came out at 0.708 ± 0.035 under setting [1] and 0.6995 ± 0.006 (genetic background: wild type).

Turning to GIGFFAVCFERD [RCM1 C-terminal 12 aa], the protein stability index worked out at 0.6906 ± 0.0028 under setting [1] and 0.664 ± 0.012 (genetic background: wild type).

For the sequence GKCTSSKFKLSS [KRE6 C-terminal 12 aa], the protein stability index reads like this: under setting [1], 0.71 ± 0.026; (genetic background: wild type) 0.619 ± 0.024.

On to GKNGARLSEIGW [SNZ2 C-terminal 12 aa], for which the protein stability index runs as follows: under setting [1], 0.7224 ± 0.0061; (genetic background: wild type) 0.691 ± 0.025.

Consider GKNKKKSKHSKK [PRP43 C-terminal 12 aa], for which the protein stability index runs as follows: under setting [1], 0.702 ± 0.057; (genetic background: wild type) 0.651 ± 0.0029.

As for GLDPEELEDLVT [PDS1 C-terminal 12 aa], the protein stability index was 0.688 ± 0.011 under setting [1] and 0.7032 ± 0.0028 (genetic background: wild type).

Consider GLEFVASRSASS [MDH2 C-terminal 12 aa], for which the protein stability index by setting is: under setting [1], 0.692 ± 0.014; (genetic background: wild type) 0.729 ± 0.033.

In the case of GLNKNMLKKIIK [YPR084W C-terminal 12 aa], the protein stability index is, setting by setting: under setting [1], 0.715 ± 0.032; (genetic background: wild type) 0.668 ± 0.03.

For the sequence GLQNRLARNNEK [MRP4 C-terminal 12 aa], the protein stability index reads like this: under setting [1], 0.734 ± 0.018; (genetic background: wild type) 0.6607 ± 0.0019.

Turning to GLQVMNEMKQRW [ECM25 C-terminal 12 aa], the protein stability index worked out at 0.7091 ± 0.0069 under setting [1] and 0.724 ± 0.053 (genetic background: wild type).

For GMLGLSALLGGE [SEC11 C-terminal 12 aa], the protein stability index is, setting by setting: under setting [1], 0.687 ± 0.019; (genetic background: wild type) 0.678 ± 0.016.

For the sequence GNLPQPVFQPLL [VHR1 C-terminal 12 aa], the protein stability index was 0.701 ± 0.0019 under setting [1] and 0.6795 ± 0.0033 (genetic background: wild type).

As to GQLTTDEETCIE [RTR2 C-terminal 12 aa], the protein stability index runs as follows: under setting [1], 0.6793 ± 0.0044; (genetic background: wild type) 0.726 ± 0.034.

As for GRDCISKRAILE [IMP2 C-terminal 12 aa], the protein stability index runs as follows: under setting [1], 0.7067 ± 0.0024; (genetic background: wild type) 0.6702 ± 0.004.

Take GRGLLGCRIQEL [NAS2 C-terminal 12 aa]: the protein stability index was 0.703 ± 0.012 under setting [1] and 0.681 ± 0.032 (genetic background: wild type).

With GSESILTAKQPI [OCA2 C-terminal 12 aa], the protein stability index under setting [1] stood at 0.706 ± 0.0075 and the protein stability index (genetic background: wild type) turned out to be 0.685 ± 0.009.

For the sequence GSNNRGYTLIDL [ENT1 C-terminal 12 aa], the protein stability index under setting [1] was 0.698 ± 0.015 and the protein stability index (genetic background: wild type) was found to be 0.736 ± 0.029.

In the case of GTDLLKENRNCS [YML096W C-terminal 12 aa], the protein stability index was 0.669 ± 0.0067 under setting [1] and 0.6895 ± 0.0012 (genetic background: wild type).

On to GTVDEIIKFLSE [YTA7 C-terminal 12 aa], for which the protein stability index by setting is: under setting [1], 0.725 ± 0.023; (genetic background: wild type) 0.736 ± 0.066.

For the sequence GVLLILASALFT [ZRT3 C-terminal 12 aa], the protein stability index by setting is: under setting [1], 0.3294 ± 0.0016; (genetic background: wild type) 0.341 ± 0.0088.

For the sequence GVSTGYEKIRYI [FUI1 C-terminal 12 aa], the protein stability index turned out to be 0.734 ± 0.012 under setting [1] and 0.31 ± 0.025 (genetic background: wild type).

Regarding GVVKFNSEHYRD [SAP185 C-terminal 12 aa], the protein stability index came to 0.721 ± 0.045 under setting [1] and 0.668 ± 0.034 (genetic background: wild type).

In the case of GWLQDSNFTKYL [FUN19 C-terminal 12 aa], the protein stability index was 0.6978 ± 0.0056 under setting [1] and 0.808 ± 0.13 (genetic background: wild type).

As to GWQTGALIIKKH [SAF1 C-terminal 12 aa], the protein stability index is, setting by setting: under setting [1], 0.729 ± 0.0083; (genetic background: wild type) 0.763 ± 0.11.

With GYDTVASLDFWG [ROM2 C-terminal 12 aa], the protein stability index was found to be 0.742 ± 0.018 under setting [1] and 0.761 ± 0.047 (genetic background: wild type).

As to GYEDGTIKLNKI [ASA1 C-terminal 12 aa], the protein stability index runs as follows: under setting [1], 0.697 ± 0.033; (genetic background: wild type) 0.682 ± 0.018.

HAEFHARNLGLI [YJL068C C-terminal 12 aa] came in with a protein stability index under setting [1] of 0.7036 ± 0.0021 and a protein stability index (genetic background: wild type) of 0.686 ± 0.023.

HGGNISSSTYQA [GND2 C-terminal 12 aa]: the protein stability index is, setting by setting: under setting [1], 0.698 ± 0.02; (genetic background: wild type) 0.722 ± 0.054.

With HHVESVCIMKRI [TRM2 C-terminal 12 aa], the protein stability index under setting [1] came to 0.668 ± 0.014 and the protein stability index (genetic background: wild type) was determined as 0.675 ± 0.034.

Turning to HPCTSLTSVIVV [YGL072C C-terminal 12 aa], the protein stability index runs as follows: under setting [1], 0.36 ± 0.045; (genetic background: wild type) 0.433 ± 0.051.

Regarding HSRNPKRSSTTL [TRK1 C-terminal 12 aa], the protein stability index worked out at 0.737 ± 0.034 under setting [1] and 0.767 ± 0.069 (genetic background: wild type).

HTPSLKTWSTIK [FKS1 C-terminal 12 aa] displayed a protein stability index under setting [1] of 0.7108 ± 0.0063 and a protein stability index (genetic background: wild type) of 0.711 ± 0.019.

Consider HVDKRTKIDQEA [ISW2 C-terminal 12 aa], for which the protein stability index reads like this: under setting [1], 0.702 ± 0.056; (genetic background: wild type) 0.681 ± 0.016.

In turn, HWQYMKDYLNLY [SLI1 C-terminal 12 aa] showed a protein stability index under setting [1] of 0.715 ± 0.033 and a protein stability index (genetic background: wild type) of 0.684 ± 0.06.

For the sequence IAEGKSLGIIGA [HXK1 C-terminal 12 aa], the protein stability index reads like this: under setting [1], 0.6923 ± 0.0061; (genetic background: wild type) 0.686 ± 0.034.

In the case of “IAPSGKYYFPFG [YMR031W-A C-terminal 12 aa]”, the protein stability index is, setting by setting: under setting [1], 0.718 ± 0.011; (genetic background: wild type) 0.684 ± 0.011.

As to IARSRRAFLSKL [MRP7 C-terminal 12 aa], the protein stability index is, setting by setting: under setting [1], 0.843 ± 0.018; (genetic background: wild type) 0.846 ± 0.089.

As for IDASKDQDTMME [NUG1 C-terminal 12 aa], the protein stability index worked out at 0.693 ± 0.019 under setting [1] and 0.736 ± 0.068 (genetic background: wild type).

Turning to IDEFYECLQDQQ [DCN1 C-terminal 12 aa], the protein stability index by setting is: under setting [1], 0.704 ± 0.0073; (genetic background: wild type) 0.721 ± 0.013.

Consider “IDKFLNSAVLSA [YMR307C-A C-terminal 12 aa]”, for which the protein stability index is, setting by setting: under setting [1], 0.5813 ± 0.0033; (genetic background: wild type) 0.637 ± 0.017.

For IDKLRNSFYKTI [SMU2 C-terminal 12 aa], the protein stability index worked out at 0.687 ± 0.028 under setting [1] and 0.515 ± 0.028 (genetic background: wild type).

Take IDSNNAQSKIFS [MYO1 C-terminal 12 aa]: the protein stability index is, setting by setting: under setting [1], 0.6956 ± 0.00034; (genetic background: wild type) 0.6648 ± 0.0055.

For IDVELEEESFTW [FRE1 C-terminal 12 aa], the protein stability index runs as follows: under setting [1], 0.698 ± 0.024; (genetic background: wild type) 0.743 ± 0.022.

For IEFSMRSLCQGK [CFT1 C-terminal 12 aa], the protein stability index worked out at 0.7166 ± 0.0059 under setting [1] and 0.685 ± 0.038 (genetic background: wild type).

As to IEHYKSEQEKSL [MUP1 C-terminal 12 aa], the protein stability index runs as follows: under setting [1], 0.6971 ± 0.0015; (genetic background: wild type) 0.67 ± 0.035.

In the case of IEQETGSEEKQE [SBP1 C-terminal 12 aa], the protein stability index is, setting by setting: under setting [1], 0.6781 ± 0.0035; (genetic background: wild type) 0.7729 ± 0.0054.

As for IFCTLFIHTQIL [PLC1 C-terminal 12 aa], the protein stability index reads like this: under setting [1], 0.138 ± 0.011; (genetic background: wild type) 0.143 ± 0.023.

The sequence IFHQLQKKINRS [IWR1 C-terminal 12 aa] displayed a protein stability index under setting [1] of 0.703 ± 0.0083 and a protein stability index (genetic background: wild type) of 0.6656 ± 0.0027.
